Laboratory results from publication PMC8760489 (The Journal of Biological Chemistry, 2021).

Target: T1, His6-TviD (Salmonella enterica serovar Typhi, UniProt Q04974 1-831)
T1 sequence: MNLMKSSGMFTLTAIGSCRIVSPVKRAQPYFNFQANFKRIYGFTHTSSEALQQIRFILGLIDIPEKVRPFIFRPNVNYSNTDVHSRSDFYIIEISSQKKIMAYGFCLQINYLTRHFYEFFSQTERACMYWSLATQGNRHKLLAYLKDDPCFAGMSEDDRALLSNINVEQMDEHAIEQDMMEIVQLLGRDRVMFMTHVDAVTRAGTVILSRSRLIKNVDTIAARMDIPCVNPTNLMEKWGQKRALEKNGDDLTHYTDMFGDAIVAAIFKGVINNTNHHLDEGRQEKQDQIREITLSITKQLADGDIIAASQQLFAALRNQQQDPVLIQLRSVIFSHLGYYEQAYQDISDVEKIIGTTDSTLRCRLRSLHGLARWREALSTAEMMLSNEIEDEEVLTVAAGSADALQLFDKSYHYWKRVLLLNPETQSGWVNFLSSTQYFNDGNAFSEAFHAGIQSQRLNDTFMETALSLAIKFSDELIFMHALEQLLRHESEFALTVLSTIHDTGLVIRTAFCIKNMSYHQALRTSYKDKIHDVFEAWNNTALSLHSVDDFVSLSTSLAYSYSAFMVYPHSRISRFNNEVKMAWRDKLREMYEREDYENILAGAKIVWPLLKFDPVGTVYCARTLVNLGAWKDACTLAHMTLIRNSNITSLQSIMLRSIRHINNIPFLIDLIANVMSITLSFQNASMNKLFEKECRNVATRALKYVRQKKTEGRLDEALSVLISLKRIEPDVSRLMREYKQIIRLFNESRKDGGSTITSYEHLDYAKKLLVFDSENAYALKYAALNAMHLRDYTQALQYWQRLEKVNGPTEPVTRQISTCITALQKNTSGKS
Assay: […]

B1: TviE-FLAG (enzyme)
chain: MITQEEKLAALGKTCLTLKQEKKLAQAVALIDSELPTEALTSLAMLKKAEFLHDVNETERAYALYETLIAQNNDEARYEYARRLYNTGLAKDAQLILKKVSNGVQKKYNNYLGKINKICDLLERLEGKAIPVGTNTCIIAMKHAILFYRNRQPRQLPVGSFGRLALCTGSLGSGGAERQISRLAIEIARKYRQKGKIGGLKVEEPVELIIRSLTPELRQDFFLKEVLEEQVEVLEIAKITGNLFDDATIESPELRLLLSHLPPVCKYGIKHLVPHLCERKLDYLSVWQDSACLMIALAALIAGVPRIQLGLRGLPPVVRKRLFKPEYEPLYQALAVVPGVDFMSNNHCVTRHYADWLKLEAKHFQVVYNGVLPPSTEPSSEVPHKIWQQFTQKTQDADTTIGGVFRFVGDKNPFAWIDFAARYLQHHPATRFVLVGDGDLRAEAQKRAEQLGILERILFVGASRDVGYWLQKMNVFILFSRYEGLPNVLIEAQMVGVPVISTPAGGSAECFIEGVSGFILDDAQTVNLDQACRYAEKLVNLWRSRTGICQQTQSFLQERFTVEHMVGTFVKTIASQPR
**Q.** Does B1 bind?
**A.** Result: binds
